Measurements as given in patent publication US20260217779A1 (Chugai, published 2026).
Positions count from the first letter of the chain named. Names and notes keep the numbering of the source.

T1: human CXCR3 (hCXCR3) on Ba/F3 transfectant cells (human, UniProt P49682 1-368)
T1 sequence: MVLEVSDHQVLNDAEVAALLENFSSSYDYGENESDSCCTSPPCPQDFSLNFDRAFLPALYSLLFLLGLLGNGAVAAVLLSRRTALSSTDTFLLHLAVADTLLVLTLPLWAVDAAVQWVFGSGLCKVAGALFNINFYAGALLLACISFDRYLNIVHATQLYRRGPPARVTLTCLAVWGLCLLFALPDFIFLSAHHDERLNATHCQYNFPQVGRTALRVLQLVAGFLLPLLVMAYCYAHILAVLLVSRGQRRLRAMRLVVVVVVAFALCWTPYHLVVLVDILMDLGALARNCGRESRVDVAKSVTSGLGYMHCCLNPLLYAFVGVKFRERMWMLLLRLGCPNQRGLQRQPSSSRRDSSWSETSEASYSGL

B1: hCXCL11.0048-G1T4k.one//VHn-G1T4h.one.H435R (Fc fusion)
chain 1: FLPMFKRGRCLCIGPGVKAVKVADIEKASIMYPSNNCDKIEVIITLKENKGQRCLNPKSKQARLIIKKVERKNFEPKSSDKTHTCPPCPAPELRRGPSVFLFPPKPKDTLMISRTPEVTCVVVDVSHEDPEVKFNWYVDGVEVHNAKTKPREEQYNSTYRVVSVLTVLHQDWLNGKEYKCKVSNKGLPSSIEKTISKAKGQPREPQVCTLPPSREEMTKNQVSLWCLVKGFYPSDIAVEWESNGQPENNYKTTPPVLDSDGSFFLYSKLTVDKSRWQEGNVFSCSVMHEALHNHYTQKSLSLSP
chain 2: EPKSSDKTHTCPPCPAPELRRGPSVFLFPPKPKDTLMISRTPEVTCVVVDVSHEDPEVKFNWYVDGVEVHNAKTKPREEQYNSTYRVVSVLTVLHQDWLNGKEYKCKVSNKGLPSSIEKTISKAKGQPREPQVYTLPPSRCEMTKNQVSLSCAVKGFYPSDIAVEWESNGQPENNYKTTPPVLDSDGSFFLVSKLTVDKSRWQEGNVFSCSVMHEALHNRYTQKSLSLSP
B2: hCXCL11.0049-G1T4k.one//VHn-G1T4h.one.H435R (Fc fusion)
chain 1: B1 chain 1 with L2M
chain 2: B1 chain 2
B3: hCXCL11.0050-G1T4k.one//VHn-G1T4h.one.H435R (Fc fusion)
chain 1: B1 chain 1 with L2N
chain 2: B1 chain 2
B4: hCXCL11.0051-G1T4k.one//VHn-G1T4h.one.H435R (Fc fusion)
chain 1: B1 chain 1 with L2P
chain 2: B1 chain 2
B5: hCXCL11.0052-G1T4k.one//VHn-G1T4h.one.H435R (Fc fusion)
chain 1: B1 chain 1 with L2Q
chain 2: B1 chain 2
B6: hCXCL11.0053-G1T4k.one//VHn-G1T4h.one.H435R (Fc fusion)
chain 1: B1 chain 1 with L2R
chain 2: B1 chain 2
B7: hCXCL11.0054-G1T4k.one//VHn-G1T4h.one.H435R (Fc fusion)
chain 1: B1 chain 1 with L2S
chain 2: B1 chain 2
B8: hCXCL11.0055-G1T4k.one//VHn-G1T4h.one.H435R (Fc fusion)
chain 1: B1 chain 1 with L2T
chain 2: B1 chain 2
B9: hCXCL11.0056-G1T4k.one//VHn-G1T4h.one.H435R (Fc fusion)
chain 1: B1 chain 1 with L2V
chain 2: B1 chain 2
B10: hCXCL11.0057-G1T4k.one//VHn-G1T4h.one.H435R (Fc fusion)
chain 1: B1 chain 1 with L2W
chain 2: B1 chain 2
B11: hCXCL11.0058-G1T4k.one//VHn-G1T4h.one.H435R (Fc fusion)
chain 1: B1 chain 1 with L2Y
chain 2: B1 chain 2

Each binder was assayed against T1, human CXCR3 (hCXCR3) on Ba/F3 … (assay: cell-based or functional assay).

Binder | Activity retention rate at 33 nM [%] | Activity retention rate at 100 nM [%] | Activity retention rate at 300 nM [%] | Luminescence value at 33 nM | Luminescence value at 100 nM | Luminescence value at 300 nM
B1 | 52 | 75 | 72 | 3.97e+06 | 1.25e+07 | 8.95e+06
B2 | 66 | 90 | 75 | 5.1e+06 | 1.5e+07 | 9.32e+06
B3 | 30 | 51 | 64 | 2.32e+06 | 8.49e+06 | 7.92e+06
B4 | 84 | 89 | 82 | 6.46e+06 | 1.49e+07 | 1.02e+07
B5 | 77 | 90 | 67 | 5.88e+06 | 1.51e+07 | 8.33e+06
B6 | 8 | 26 | 60 | 595000 | 4.26e+06 | 7.43e+06
B7 | 42 | 63 | 51 | 3.24e+06 | 1.05e+07 | 6.34e+06
B8 | 39 | 58 | 42 | 2.98e+06 | 9.65e+06 | 5.27e+06
B9 | 8 | 33 | 59 | 643000 | 5.57e+06 | 7.33e+06
B10 | 7 | 37 | 86 | 501000 | 6.21e+06 | 1.07e+07
B11 | 15 | 42 | 84 | 1.12e+06 | 7.07e+06 | 1.04e+07
